{
  "source": "paper PMC4036204",
  "about": "“The DDN Catalytic Motif Is Required for Metnase Functions in Non-homologous End Joining (NHEJ) Repair and Replication Restart*”",
  "binders": {"B1": {"name": "28-bp blunt TIR dsDNA (dsDNA)", "DNA 1": "AACCGCAATTACTTTTGCACCAACCTAA", "DNA 2": "TTAGGTTGGTGCAAAAGTAATTGCGGTT", "modifications": "5' C6-amino linker on strand 1"}, "B2": {"name": "25/31-mer TIR partial duplex (dsDNA)", "DNA 1": "AACCGCAATTACTTTTGCACCAACC", "DNA 2": "TCAGTAGGTTGGTGCAAAAGTAATTGCGGTT", "modifications": "5' C6-amino linker on strand 1"}},
  "assay_in_all_cases": "fluorescence polarization; FP: 50 mM HEPES pH 7.0, 150 mM NaCl, 10 nM probe, temperature not stated; EMSA: 50 mM HEPES-KOH pH 7.8, 50 mM NaCl, 0.2 ug poly(dI:dC), 0.2 ug/ul BSA, room temperature 15 min",
  "key": {"[1]": {"target": "T1, Metnase catalytic domain WT (UniProt Q53H47 446-684)", "T1 sequence": "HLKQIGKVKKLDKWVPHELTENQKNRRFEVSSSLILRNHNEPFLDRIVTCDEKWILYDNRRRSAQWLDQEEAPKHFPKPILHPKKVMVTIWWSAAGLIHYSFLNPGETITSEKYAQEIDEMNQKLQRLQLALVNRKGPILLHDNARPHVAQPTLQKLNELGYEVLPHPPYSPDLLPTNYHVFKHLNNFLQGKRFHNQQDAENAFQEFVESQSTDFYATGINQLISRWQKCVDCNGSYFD", "conditions": "protein: recombinant, tags: N-terminal His tag removed by thrombin"}, "[2]": {"target": "T2, Metnase transposase domain WT (UniProt Q53H47 342-684)", "T2 sequence": "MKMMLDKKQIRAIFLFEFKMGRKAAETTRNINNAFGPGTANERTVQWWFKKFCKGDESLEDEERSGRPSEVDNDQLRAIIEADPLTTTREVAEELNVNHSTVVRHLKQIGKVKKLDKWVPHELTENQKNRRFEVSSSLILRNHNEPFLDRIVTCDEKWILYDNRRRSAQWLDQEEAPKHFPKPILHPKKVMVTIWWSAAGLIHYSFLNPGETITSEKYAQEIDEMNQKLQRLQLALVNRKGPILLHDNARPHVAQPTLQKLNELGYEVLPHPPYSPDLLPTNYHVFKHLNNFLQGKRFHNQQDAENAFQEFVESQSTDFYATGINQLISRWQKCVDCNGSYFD", "conditions": "protein: recombinant, tags: His6-SUMO cleaved by Ulp1"}, "[3]": {"target": "T3, Metnase DNA-binding domain WT (UniProt Q53H47 342-453)", "T3 sequence": "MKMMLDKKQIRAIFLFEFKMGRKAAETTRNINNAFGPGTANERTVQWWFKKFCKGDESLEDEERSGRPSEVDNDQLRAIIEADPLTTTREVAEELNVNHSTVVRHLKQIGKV", "conditions": "protein: recombinant, tags: His6-SUMO cleaved by Ulp1"}, "[4]": {"target": "T4, Metnase transposase domain N610E (UniProt Q53H47 342-684, N623E)", "T4 sequence": "T2 sequence with N282E", "conditions": "protein: recombinant; tags: His6-SUMO cleaved by Ulp1; label: 5' rhodamine; single strand"}, "[5]": {"target": "T5, Mos1 transposase WT (UniProt Q7JQ07 1-345)", "T5 sequence": "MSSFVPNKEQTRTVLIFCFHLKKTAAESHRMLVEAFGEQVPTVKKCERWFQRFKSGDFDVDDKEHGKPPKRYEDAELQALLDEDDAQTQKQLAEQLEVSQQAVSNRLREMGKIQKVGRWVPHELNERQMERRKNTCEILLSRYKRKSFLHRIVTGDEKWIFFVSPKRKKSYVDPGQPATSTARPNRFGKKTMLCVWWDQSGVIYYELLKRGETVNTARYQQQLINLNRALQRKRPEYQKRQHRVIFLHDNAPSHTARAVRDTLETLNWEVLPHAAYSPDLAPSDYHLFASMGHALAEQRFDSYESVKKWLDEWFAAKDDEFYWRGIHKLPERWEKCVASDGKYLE", "conditions": "protein: recombinant; tags: His6-SUMO cleaved by Ulp1; label: 5' rhodamine; single strand"}, "[6]": {"target": "T6, Metnase transposase domain N610D (UniProt Q53H47 342-684, N623D)", "T6 sequence": "T2 sequence with N282D", "conditions": "protein: recombinant; tags: His6-SUMO cleaved by Ulp1; label: 5' rhodamine; single strand"}, "[7]": {"target": "T7, Mos1 transposase D284N (UniProt Q7JQ07 1-345, D284N)", "T7 sequence": "T5 sequence with D284N", "conditions": "protein: recombinant; tags: His6-SUMO cleaved by Ulp1; label: 5' rhodamine; single strand"}, "[8]": {"conditions": "label: 5' rhodamine on strand 1, blunt"}, "[9]": {"conditions": "label: 5' rhodamine, single strand"}},
  "note": "Positions count from the first letter of the chain named.",
  "data": [
    {"binder": "B1", "values": [
      {"measurement": "Kd", "setting": "[1]; [8]", "result": "4.7 ± 0.8", "unit": "µM"},
      {"measurement": "Kd", "setting": "[2]; chain copies: 2, label: 5' rhodamine on strand 1, blunt", "result": "0.0079 ± 0.0019", "unit": "µM"},
      {"measurement": "Kd", "setting": "[3]; [8]", "result": "0.0032 ± 0.0009", "unit": "µM"}
    ]},
    {"binder": "B2", "values": [
      {"measurement": "Kd", "setting": "[2]; chain copies: 2, label: 5' rhodamine on strand 1, 5' overhang 6 nt on strand 2", "result": "0.0119 ± 0.0025", "unit": "µM"}
    ]},
    {"binder": "AACCGCAATTACTTTTGCACCAACC (ssDNA, 5' C6-amino linker)", "note": "[25-nt TIR ssDNA]", "values": [
      {"measurement": "Kd", "setting": "[4]", "result": "3.2 ± 0.4", "unit": "µM"},
      {"measurement": "Kd", "setting": "[5]", "result": "0.033 ± 0.009", "unit": "µM"},
      {"measurement": "Kd", "setting": "[6]", "result": "3.3 ± 1.1", "unit": "µM"},
      {"measurement": "Kd", "setting": "[1]; [9]", "result": "0.295 ± 0.047", "unit": "µM"},
      {"measurement": "Kd", "setting": "[2]; [9]", "result": "0.277 ± 0.026", "unit": "µM"},
      {"measurement": "binding result", "setting": "[3]; [9]", "result": "no binding"},
      {"measurement": "Kd", "setting": "[7]", "result": "0.033 ± 0.012", "unit": "µM"}
    ]}
  ]
}
